Here are results for one molecule from patent US20140011978A1 (EPFL TTO, published 2014).

For one test, the target named is T1, BSA (bovine, UniProt P02769).
T1 construct: negative control; also called bovine serum albumin
The test can be described thus: ELISA: BSA coated as control, Fg fragment in solution, A450 (methods analogous to Example 3). On the procedure:
(§1) ELISA plates were coated with cytokines or BSA and further incubated with TNC III1-5 to analyze binding of TNC III1-5 to a wide variety of cytokines. […] A large amount of heparin (4 μM) impaired binding of TNC III1-5 to these cytokines. Results are depicted in FIG. 3. Method: 50 nM of cytokine was coated for (1 hr, 37° C.). After blocking with 2% BSA (1 hr, RT). 100 nM TNC III1-5 was applied in PBST (0.05% tween, 0.1% bovine serum albumin (BSA)) (1 hr, RT). TNC III1-5 was detected with horseradish peroxidase (HRP)-anti-HIS in PBST (1 hr, RT) and developed with 3,3′,5,5′-tetramethylbenzidine (TMB), a soluble colorimetric HRP […]. Addition of sulfuric acid stop solution changes the color to yellow, enabling accurate measurement of the intensity at 450 nm using a spectrophotometer or plate reader. […] Heparin (4 μM) was added to TNC III1-5 to test the effect of blocking the heparin binding site of TNC III1-5, which has been defined as domain TNC III5 (Weber, Zimmermann, et al., 1995).
(§2) ELISA plates were coated with cytokines or BSA and further incubated with Fg β15-66 to analyze binding of […] to a wide variety of cytokines. […] Results are depicted in FIG. 4. Method: The methods were analogous to those used in Example 3.
Background: An ELISA detects its analyte on a solid surface through an enzyme-linked reagent.

The next test concerns the target BMP-2 (UniProt P12643 283-396). The test can be described thus: ELISA: growth factor coated, Fg fragment in solution, A450 (methods analogous to Example 3). On the procedure:
as §1, §2

A further test addresses T2, PDGF-BB (UniProt P01127 82-190).
T2 construct: The name implies a homodimer of B chains
Described as above. On the procedure:
as §1, §2

For a further test, the target named is PDGF-DD (UniProt Q9GZP0 250-370). Described as above. On the procedure: as §1, §2
Sequence of PDGF-DD (Q9GZP0 250-370): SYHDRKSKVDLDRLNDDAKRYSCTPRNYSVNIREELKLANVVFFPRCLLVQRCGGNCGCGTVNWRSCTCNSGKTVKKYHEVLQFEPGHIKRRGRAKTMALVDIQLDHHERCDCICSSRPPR
The next test deals with T3, FGF-7 (UniProt P21781 32-194).
T3 sequence (looked up): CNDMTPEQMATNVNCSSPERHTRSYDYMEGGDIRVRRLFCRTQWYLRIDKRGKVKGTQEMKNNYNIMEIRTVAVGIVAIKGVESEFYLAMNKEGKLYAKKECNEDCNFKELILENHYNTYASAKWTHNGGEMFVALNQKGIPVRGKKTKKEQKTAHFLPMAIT
The test is described as above. Here is the method: as §1, §2

The target in a further test is VEGF-A165 (UniProt P15692-4 27-191). The description is as above. Here is the method: as §1, §2
Sequence of VEGF-A165 (P15692 other isoform, or with tags, fused parts or gaps limits assumed): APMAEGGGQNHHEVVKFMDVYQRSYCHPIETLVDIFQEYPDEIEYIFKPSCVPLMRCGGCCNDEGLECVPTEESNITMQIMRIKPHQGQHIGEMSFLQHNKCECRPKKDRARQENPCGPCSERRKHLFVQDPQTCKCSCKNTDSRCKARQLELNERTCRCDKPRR
In another test the target is T4, PDGF-AB (UniProt P04085 87-211; P01127 82-190, limits assumed).
T4 construct: The name implies a heterodimer of A and B chains
T4 sequence (P01127 82-190 limits assumed, chain 2 of 2, other chains not shown): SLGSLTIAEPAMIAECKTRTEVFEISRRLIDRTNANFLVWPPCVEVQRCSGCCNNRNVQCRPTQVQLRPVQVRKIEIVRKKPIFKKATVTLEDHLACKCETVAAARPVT
The test is described as follows: ELISA, cytokine coated, Fg β15-66 in solution (methods as Example 3). Here is the method:
as §1, §2

In the next test the target is T5, BMP-2/7 (UniProt P12643 283-396; P18075 293-431).
T5 construct: The name implies a BMP-2/BMP-7 heterodimer
T5 sequence (P12643 283-396, chain 1 of 2): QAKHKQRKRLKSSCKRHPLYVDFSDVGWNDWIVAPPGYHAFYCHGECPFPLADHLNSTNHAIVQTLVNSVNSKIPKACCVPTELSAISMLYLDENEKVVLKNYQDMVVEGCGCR
T5 sequence (P18075 293-431, chain 2 of 2): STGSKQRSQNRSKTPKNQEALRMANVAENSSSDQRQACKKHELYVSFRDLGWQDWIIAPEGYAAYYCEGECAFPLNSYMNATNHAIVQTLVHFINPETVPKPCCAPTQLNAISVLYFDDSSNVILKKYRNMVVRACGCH
Described as above. On the procedure: as §1, §2

The next test deals with T6, FGF-5 (UniProt P12034 21-268, limits assumed).
T6 sequence (looked up): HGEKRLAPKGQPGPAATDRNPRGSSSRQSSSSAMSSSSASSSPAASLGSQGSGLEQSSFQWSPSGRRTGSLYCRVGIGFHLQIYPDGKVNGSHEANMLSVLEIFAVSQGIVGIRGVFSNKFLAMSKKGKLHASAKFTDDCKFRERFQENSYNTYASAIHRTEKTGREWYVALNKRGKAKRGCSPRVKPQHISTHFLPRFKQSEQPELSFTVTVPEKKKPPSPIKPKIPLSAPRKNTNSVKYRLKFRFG
Described as above. Here is the method: as §1, §2

The target in another test is IGF-BP5 (UniProt P24593 21-272). The test can be described thus: SPR, Fg β15-66 on the chip, cytokine injected (methods as Example 5), Langmuir fit. Here is the method: (§3) Surface plasmon resonance (SPR) was done to quantify the affinity of specific cytokines to TNC III1-5. […] Method: Surface plasmon resonance chips were functionalized with TNC III1-5 or BSA and cytokines were injected over the chips at different concentrations. The chips contained gold with free carboxyl groups that were activated to bind TNC III1-5 in one channel and BSA as a reference protein in another channel. The specific response of a cytokine to TNC III1-5 (in RU) was obtained relative to the response to BSA. Results are depicted in FIG. 5.
Sequence of IGF-BP5 (P24593 21-272 limits assumed): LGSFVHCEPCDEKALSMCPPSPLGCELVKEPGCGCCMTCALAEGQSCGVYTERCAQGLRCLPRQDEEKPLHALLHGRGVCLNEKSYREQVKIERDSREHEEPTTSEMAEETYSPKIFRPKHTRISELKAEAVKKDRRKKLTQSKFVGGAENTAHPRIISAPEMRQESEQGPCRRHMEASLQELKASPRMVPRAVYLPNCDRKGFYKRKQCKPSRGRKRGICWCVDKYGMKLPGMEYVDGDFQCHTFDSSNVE
(§4) Surface plasmon resonance (SPR) was done to quantify the affinity of specific cytokines to Fg β15-66. […] Method: The methods used above were analogous to those used in Example 5. Fits of the experimental data were made with Langmuir binding kinetics. Results are depicted in FIG. 6.

The next test deals with TGF-β1 (UniProt P01137 279-390). Described as above. Here is the method:
as §3, §4

The next test deals with T7, PlGF-2 (UniProt P49763-3 19-170).
T7 sequence (looked up): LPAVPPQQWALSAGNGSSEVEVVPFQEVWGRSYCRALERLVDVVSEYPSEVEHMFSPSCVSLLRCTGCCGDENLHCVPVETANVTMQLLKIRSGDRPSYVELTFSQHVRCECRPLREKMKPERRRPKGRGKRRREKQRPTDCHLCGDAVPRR
Described as above. Here is the method:
as §3, §4

The target in the next test is FGF-2 (UniProt P09038 135-288, limits assumed). Described as above. Here is the method: as §3, §4
Sequence of FGF-2 (P09038 135-288 limits assumed): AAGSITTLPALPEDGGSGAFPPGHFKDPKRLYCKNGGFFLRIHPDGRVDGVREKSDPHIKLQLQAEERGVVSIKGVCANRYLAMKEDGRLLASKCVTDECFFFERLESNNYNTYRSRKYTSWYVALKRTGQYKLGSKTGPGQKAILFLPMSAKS

T2 sequence (P01127 82-190 limits assumed): as the sequence (P01127 82-190 limits assumed, chain 2 of 2, other chains not shown) above
Sequence of TGF-β1 (P01137 279-390 limits assumed): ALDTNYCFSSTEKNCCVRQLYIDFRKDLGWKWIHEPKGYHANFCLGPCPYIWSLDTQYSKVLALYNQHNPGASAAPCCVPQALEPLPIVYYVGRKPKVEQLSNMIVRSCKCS
T1 sequence (P02769 25-607 limits assumed): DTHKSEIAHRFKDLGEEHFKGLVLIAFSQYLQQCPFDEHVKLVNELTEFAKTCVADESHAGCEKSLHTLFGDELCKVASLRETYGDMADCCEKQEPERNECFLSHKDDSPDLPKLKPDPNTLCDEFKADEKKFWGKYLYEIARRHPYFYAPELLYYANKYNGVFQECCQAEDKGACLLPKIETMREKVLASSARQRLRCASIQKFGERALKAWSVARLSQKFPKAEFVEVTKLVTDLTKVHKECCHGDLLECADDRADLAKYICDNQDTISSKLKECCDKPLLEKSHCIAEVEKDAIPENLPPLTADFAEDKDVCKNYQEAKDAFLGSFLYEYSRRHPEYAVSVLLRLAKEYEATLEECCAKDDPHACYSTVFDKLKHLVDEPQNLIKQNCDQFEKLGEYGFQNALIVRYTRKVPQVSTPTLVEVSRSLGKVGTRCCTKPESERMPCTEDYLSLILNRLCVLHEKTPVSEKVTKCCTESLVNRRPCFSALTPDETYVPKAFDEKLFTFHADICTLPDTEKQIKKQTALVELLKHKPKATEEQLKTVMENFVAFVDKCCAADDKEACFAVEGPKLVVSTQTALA
Sequence of BMP-2 (P12643 283-396 limits assumed): as the sequence (P12643 283-396, chain 1 of 2) above

B1: Fg β15-66 (other)
chain: GSNQEQVSPLGHRPLDKKREEAPSLRPAPPPISGGGYRARPAKAAATQKKVERKAPDAGGCGHHHHHH
notes: Made as a GST fusion; GST was cleaved off; also called TG-Fg β15-66; fibrinogen β15-66 domain
Usually Kd stands for a measure of binding affinity in units of concentration. A lower Kd goes with tighter binding. For the molecule B1, the binding result in the test with BSA is listed as “no binding”; with BMP-2, “binds”; in the test with PDGF-BB it was “binds”; in the test with PDGF-DD, “binds”; with FGF-7, “binds”; in the test with VEGF-A165, “binds”. In addition, the binding result with PDGF-AB, in the test with BMP-2/7 and with FGF-5 was “binds” throughout. Also, the Kd was determined as 19.6 nM with IGF-BP5, 56.5 nM with TGF-β1, 1.9 nM with PlGF-2 and 53 nM with FGF-2.
